Test: label from the status in PepcDB records

| Sequence | protein production |
| --- | --- |
| MFLVTGATGDIGRRVIRLLREHNHSVRGFARLTSRYGELEHRGANIFIGDLRREQDIEKACQGVQYIISAHGSDNDALTLDYRANIALIDQAKANGVQHFVFISVLGAERGYEDAPVFKAKRAVENYLAASGLNYTILRPAGLASNLLPLAERFRETGLYLLIGDPKNRTSIVSTDDLARIVVDSVTVPEARNQIFSVGGPEILLREDIPQIFSHIFKKEPIVVNSPLLVIDGLRGVLGLINPEAQQALGTFRTLLSNEFFCRKDEIAKLEQTFNFPLETLESFLRRYLAVLEHHHHHH | failed |
| MFMYTEFRSQLLAGAGTSAAGQSARMAVLAGDGATGVQVSCVVPGLNEAANLRVLVPALRACLEQWCASWEIIVVDDGSTDDTAELMAQWSAVEGIRYVQLSRNFGKEAALTAGLEAADGDAVICLDADMQHPPELIGDMLAAWRNGADMVYAVRRQRDDEPWFKRVGARAFYRLLSTARGVEVPPHAGDFRLMDRRVVEALVALPERTRFMKGLYAWVGFKSQAVPYTPQARRHGASHFSAWKLFRLACDGLTAFTTWPLRLVSLIGVLFALLSLSYGGYLVADYLISGNAVSGWTTIVTALLFFAGINLISLGVVGEYVARIFDEVKGRPLFIARQRRGRAKRAAKARSQ | failed |
| MFNKLVFKNLKLKKLSTSLVVVASLLVAQAPFANYAEAAGAEKVEKKKKRPTQLVGPRVGKKVQKAFEAYSADDIKGALVILLDIEASKPYDKAYVSRMVAVMYATLGDNDQKTIEYLKKALEPDILNEVDQSESLKLLGDMQMQTKDYKGALKSFYAWMDFSGKDDGPTYVKIANAYYSLKQLDKVIEPADKAIAAFGDKPNQNPYILKITSYYERKMYKEAVKVLETVIQVFPENKQWWTQLPMFYLLIEDYDKAVQTLDLAYKLGHLDKESQIKTLASLYSQTEAPYKAAQLLEKYIASGLVKRDDKNISTLANAWHSAQHIDKAASYYGELAKMTSDAKHYRKQGMLLKQDEQFSKAIVALNKAIELGVSNQGRIHMSIAESYFYLEKYKKAYAAIQKAMKDPSARKSAKGWKSFIVDTARRKNVTI | failed |
| MFNLYPPHRSLEGAAILGDNCSRIFNVSDTVVNTLHIVMQSHANPLGILHGGNMIRWLVDAGTLAASKVVVGYPLLAGIDFIYLGKPVGVGETIAVFAWSPYAGRSSVEVGLAAYSLGRPGGQGLERVSAAHMTFVNVKPHEGVLRPHPHGSCIEAVDREEERLLEASMKMREARVERLRGRELLRQTVYSLRESGTEPFEVESYRIVNPIDSVAYDVMHAGAMLYIVDELGAVAALRSSAGIVVTGFVGPADFVAPMRVGEVLRMWARTSYVGRSSVEVLIRSASGFMGGGEARLTSEAYLTYISLDSSGRPLEINAPRGWEPEEQALRRAEWRRRLIRSIDSGETALEPPRRFLEMLMRGRVG | failed |
| MFPQADEPERDTLPGQEEDPLPTGQEQPSITPIAGTEAQYIDIAEWYDSDSILYITDEGENSLVYIYNLLTGEKKSLFSSDDAVIKVTANSTHSQFAIQTVTQAGDAPVSIIDSQGELLMKLEDFGEDFSIFWSPYEEDKLIAVAYLPDWEQDLYLIDTSDKQVEMLDLDQSFVQWLDERTIVYLDWNGDSEGYYAPLYTFDLETEEVVLLHEEAIATLGFGDHVTLIIERPEQGAEVTTYQFWNGSEQLAEWSVPILRTYSEQWWIPFYDFDLNKRLFYAYKPNRTGDYFEYDGGFSFIAFDVDHGEETVLFESDEHVPFRLSPTGQRALFGPRLETVMDLPTGESNSLIELEHHHHHH | failed |
| MFPYFESVATASTEFHAIEPDPHMRRQAAEQANTQATPIHIESSPAEALPYYEDTFDVVITSMVFCTIPDIESAMSEITRVLKPGGELRFFEHVIDDGWRARLQSALAPLWKRLAGGCHLTRQTGTRLVADQSFDVVEIERLNLGITPIRPFVRGRLRKRSVSSTRLEHHHHHH | failed |
| MFQDNPLLAQLKQQIQEKLPKKEGTIKATERGFGFLESDDKKKSIFIPPAQMKKVMHGDKVVALIRTENEKEQAEPDQLIEQSITRFIGRIQMFKKRLQVMPDHPSLKNAIKAKTRKGVNPETLKEGDWVVAELTQHPLKGDQGFQCDITHKITDSDDKIAPWWVTLAQNDLPNSEPEGIEHWEIKDDADLVRVDMTATPFVTIDGESTKDMDDALYIKKLENGSFELTIAIADPTAYITPDDSMDKVARERGYTIYLPGRNIPMLPRDLSDELCSLIEGQERPALCCTVLVDANGNIQEDSINFFAATIKSHARLAYDHVSDFLETGSCDKWQPNDTIAQVVTELYEFAQVRTTWRETHAVIFPDRPDYRFELSEDNDVIAIHADMRRTANKLVEEAMVTANICAGKTLRAAFNMGVFNSHAGIKSDKLKDVVEIVNQLEGVDFTEEQIATLEGFSELRRLLGKQPTSYLDARIRKFQTYSETGNEPLPHYAMGLDIYATWTSPIRKYSDMINHRMLKAHILGKEPVQRPDDIVGEELAISRRFHRMAERNVSDWLYCRTLASEVEKETKYTAEIFDINRAGMRVRLIENGAAAFIPGSLIVDNKERIECNADQGIISIDKHETFKLGDQLHVVLAEVKEDTRNMVAKPLQAFPAPEPEEAPVVENEDATTNATTSADA | failed |
| MFQDVLVITVAVGRGGDGAVSFRREKFVPKGGPDGGDGGRGGSVYLRARGSVDSLSRLSKRTYKAEDGEHGRGSQQHGRGGEDLVIEVPRGTRVFDADTGELLADLTEEGQTVLVARGGAGGRGNMHFVSPTRQAPRFAEAGEEGEKRRLRLELMLIADVGLVGYPNAGKSSLLAAMTRAHPKIAPYPFTTLSPNLGVVEVSEEERFTLADIPGIIEGASEGKGLGLEFLRHIAGTRVLLYVLDAADDPFKTLKTLRKKVWAYDPGLLGRPSLVALNKVDLLEKEAVKALADALAREGLAVLPVSALTGAGLPALKEALHALVRSTPPPEMPKPVPRKEVQAGVEVVPVAEGVYEVRAPEVERYLARIKGDLMEAAGYLQEVFRRQGVEAALRAKGVRAGDLVRIGGLEFEYIPEV | not failed |
| MFQPVTQKRLTNVSVVRMRKGGKRFEIACYPNMVMAYREGHVRDLDEVIQVEDVFENVSKGKLAANADLERCFGTRDRHAVLLQILLHGDLQVSDRERQYQSTRKLHEIASVVAAKTISRETKKPLPVGLIEKALREIHFAVQPNRPAKAQALEVIPLLRAQSGLDLERARLRLRIHVPSQRDAKAVKARLEPLQQGETDGTHSSSRSDSVRMKDGSAAVESESEEWLPGGALLWTVQADPGAFREIEEIVQRETNQQGIVEVASLRVLDDEDESILS | failed |
| MFRFADPNFLYLLILLPFLVALYLYSNYHRRQNIRKYGDPALLKGLMPTISKYRPDIKFWLTFAALTLVILMLARPQFGSKMETVKRSGVEAVIALDISNSMLAEDVTPSRLDKSKKLISRLVDTFNNDKVGLIVFAGDAFTQLPITSDYVSAKMFLETINPSLITTQGTDIGAAIRLAMKSFTPQEGVGRAIIVITDGENHEGGAVEAAQEAAEKGMQVFVLGVGSPDGSPIPAEDGSNNFRRDKDGNVIVTRLNEQMCQEIAKAGNGMYIRVDNTNSAEKVLNNEIAKLSKADVESQVYTEFDEQFQALAWLVLILLVVEMLILERKNPLFKNVRLFK | failed |
| MFRQSKRRIASRKNFSSYDDIVKSELDVGNTNAANQIILSSSSSEEEKKLYARLYESKLSFYDLPPQGEITLEQFEIWAIDRLKILLEIESCLSRNKSIKEIETIIKPQFQKLLPFNTESLEDRKKDYYSHFILRLCFCRSKELREKFVRAETFLFKIRFNMLTSTDQTKFVQSLDLPLLQFISNEEKAELSHQLYQTVSASLQFQLNLNEEHQRKQYFQQEKFIKLPFENVIELVGNRLVFLKDGYAYLPQFQQLNLLSNEFASKLNQELIKTYQYLPRLNEDDRLLPILNHLSSGYTIADFNQQKANQFSENVDDEINAQSVWSEEISSNYPLCIKNLMEGLKKNHHLRYYGRQQLSLFLKGIGLSADEALKFWSEAFTRNGNMTMEKFNKEYRYSFRHNYGLEGNRINYKPWDCHTILSKPRPGRGDYHGCPFRDWSHERLSAELRSMKLTQAQIISVLDSCQKGEYTIACTKVFEMTHNSASADLEIGEQTHIAHPNLYFERSRQLQKKQQKLEKEKLFNNGNH | failed |
| MFRTALRNVFAHKARLLMTVLAVMLGVAFVSGTLVFADTLSNAFRNQSAKSYQDVAVAVTSYADSDNPKDEYALSDEVLDRISAVDGVAGVYGRVEGFAGVADPDGKLIGVGWSNKGSNFAPGKDGKDAAYTFTDGSGPVKDDQIALDEDSAGKGEYQVGDRVRVATNGPVKEYTLSGVFTTEDGAVNAGGSLVLFDTAVAQKQYLRPGYFESATVAAAPGADDARILKAVEPLLPDTAEAQTGRALADEQADQIEQGMGNLKQVLLGFAGIALFVGIFLISNTFTMLVAQRTKEIALMRAVGASRRQITRSVLAEAALVGLVASAVGFALGVGLAVGLRSGMAAFDMKMPAGPLVLSATPVVAAFAVGVLITVFAAWLPGRRAAKIPPVAAMNS | failed |
| MFRVLHLADLHLGYRPDLPAPVREEVYRARNRVLQAAVDLALDPRQGISLVLIAGDLFDNHRPEASLVEETIRQLTRLEAAGIQVITVPGNHDEITYNDAVYRREAGRWPGLLVTDPMPAKVATLKVKGDTCHLMAMAYTGGVTRVDGPLKAFPPAEGEGVNLAVFHGSLDWDGGERSLPLDGEALAAAGYDYIALGHIHRGGQRRLGRGLAVYAGMVAGKGFADPGTGSWTIVTLGDGPARVEQVPARVTPWRLVDLDVTAFQEPEELETAVRDALDPGALMQVRLTGSLAFDLDLEGLQARLGHPCPYLELVNETAGWTPEILESIAAEPTIRGLFVRRLQEKLAGSAGPGEAEVIRRAIFRGLLALKGGSR | failed |
| MFSAKKLSPADKLKNISSMLEEIVEDTTVPRNIRAAADNAKNALHNEEQELIVRSATAIQYLDDISEDPNMPIHTRTQIWGIVSELETIK | not failed |
| MFSFPAVLEAGIVFLYIAVALFLATLGIWIARTFLMPNVIKEDWNSLNRISFTTVIPLSASVMNAAIIAYYGFNVHYEYLYLVNYFIDFTSILFLSFFLGYKLYTKSPVHTNEISYGLLIPPVAISSNVLLGSSLMRTQYFNSIIFLTVIGVGIALFLFLFIGIMTFASYIRDQKANAPSPMLVLPVGVSSIIVINILAIATAKSVFQIPMADALTVSFMLWAFELWNFVVAMMISLKRVFREPATISIWAYTFPMAIFSVSSLDLRSIIGRYGYITASNIVYYIGIGAWVILIVAWVYAVMSTAIFLSHIKMIAYPG | failed |
| MFSGKRLKKRRITLGYSQSELADKLHINRSSYFNWENEKTKPNQSNLKQLAILLDVPETYFESEYKIVNTYLQLSLQNQEKVEKYAEELLQTQKVHEKIVPLFAVEVLSEIQLSAGPGEGLYDEFETETVYSEDEYTGFDIATWISGNSMEPVYKDGEVALIRSTGFDHDGAVYALNWNGSLYIKKLYREEDGFRMVSINPDVAERFIPFEDEIRIVGKIVGHFMPVIGGLEHHHHHH | not failed |
| MFSLSFPSSSSALLPSLVAFDSSRRLSLQPKKLNRLQSHLFSPQHLSFSQSNVSRYRAFCVSSSSPPEGTVSVVDFHEKDWSFLESMEIDSTEHTQKIERIIKAGELSESSRVLVSISSETFVDRLVESSPSQLLLIVHDSLFTLACIKEKYDKVKCWQGEMIYVPEKWSPLDAVFLYFLPALPFDLDELFKTLSQRCSSGARVVISHPQGRLGLEQQRKEFSDVVVSDLPDESTLSNVAEKHSFELTQFVDEQGLYLAVLKSSKQ | failed |
| MFSNVNKTTSAEAGKSAFWAMSIFLLLLSIMLLVLGLYYQIVLHHTPAPLLLGIAAGFGLGTPLEIWNFSDPDTLMRVMAFQDRFLIVCFGFSIGLGAILLYLFAAIPGVSPHYGIKDFFVFGVVVGGLLFGVGVGLAGYFPGTIWIALGQGRRDAIYAVFGGLLGALTWSLIFGAARGFFWNTFNYGPITWYSIFGIKSHLEIFGTSLIFGAILLGMFLFLPRYPKQPVKESCGFHLAGKNNKVLTFDDMIDDENKKYPDQNQYLIRLTNESSIRNARSIIVLGIAFTVIAVAVILLRQIFGESTTYSWIGAQLFYAVNPQYAASNPYWNLFGGMHIVNGKPIDLPFSEIGWEPFSDLGTFLGGLISSIFISKRFMKFKKRVPLVWEHRFGPSDKKRFVGSFFGAFLVLFGARMANGCASGHVLSGNIQMAISSFVFLMAVLIGSWLTLYFVMGLKLNSRGYRN | failed |

From a protein production outcome set (Wang et al. 2014)
